Kd data for 2 sequences are collected here from PMC2940738.

The data set has as its target T1, ETS-4 (Caenorhabditis elegans) (UniProt A8WFJ9).
T1 sequence: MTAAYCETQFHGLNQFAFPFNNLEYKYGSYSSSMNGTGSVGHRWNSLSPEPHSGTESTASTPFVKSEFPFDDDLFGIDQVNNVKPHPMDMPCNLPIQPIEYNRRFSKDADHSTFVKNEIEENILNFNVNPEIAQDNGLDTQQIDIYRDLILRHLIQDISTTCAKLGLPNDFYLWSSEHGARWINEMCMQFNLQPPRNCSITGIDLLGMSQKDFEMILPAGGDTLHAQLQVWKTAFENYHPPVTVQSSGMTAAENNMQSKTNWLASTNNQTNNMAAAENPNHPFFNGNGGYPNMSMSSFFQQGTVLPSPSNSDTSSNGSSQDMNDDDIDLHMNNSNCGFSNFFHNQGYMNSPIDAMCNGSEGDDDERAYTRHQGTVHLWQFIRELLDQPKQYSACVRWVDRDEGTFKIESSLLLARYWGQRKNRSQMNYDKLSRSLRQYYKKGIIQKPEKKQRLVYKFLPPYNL
As to the kind of experiment: EMSA. The note with it: 25 mM Tris-Cl pH 7.9, 10% glycerol, 0.1 mM EDTA, 60 mM KCl, 6 mM MgCl2, 0.2 mg/ml BSA, 10 mM DTT, 50 ng poly[d(I-C)] in 20 ul, 1 h at 4 C; 6% native PAGE at …. Background: Mobility shift assays separate free from complexed probe on a gel.

“TCGACGGCCAAGCCGGAAGTGAGTGCC (double strand) [ETS Site-WT (GGAA)]” came in with a dissociation constant (Kd) of 1 nM. In other words, the single-digit nanomolar range.
Then “TCGACGGCCAAGCCGGATGTGAGTGCC (double strand) [ETS Site-WT (GGAT)]”, with 1 nM.

Broadly, the Kd is the free concentration of one partner at which half of the binding sites on the other are occupied at equilibrium, for simple one-to-one binding. A higher Kd goes with weaker binding.
